Experiment [1] can be described thus: Enzymatic hydrolysis of purified lipoproteins (NEFA). In kind it is biochemical, human. To be noted: 15 h at 37° C., each sPLA2 at approximately 10×IC50. On the procedure:
CM/VLDL, LDL and HDL were purified from human plasma and used either fresh (F) or after minimal oxidization by air and light (Ox). After phospholipid content determination, plasma, LDL and HDL were adjusted to 1.6 mg PL/mL final concentration in PBS calcium. Because low amount was available, the CM/VLDL fraction was adjusted to 1.0 mg PL/mL. Each sample was incubated for 15 hours at 37° C., alone or in the presence of recombinant human GX sPLA2 (hGX PLA2; 25 nM), recombinant human GIIF sPLA2 (hGIIF PLA2; 125 nM), bee venom sPLA2 (bvPLA2; 0.18 nM) and Naja mossambica mossambica venom sPLA2 (Naja PLA2; 0.05 nM). NEFAs were quantified using the NEFA-C kit (WAKO). Values are the mean±SD of triplicate measurements. They were normalized by subtracting NEFA amount in the absence of enzyme. Two independent experiments with lipoproteins from different plasmas were performed, which gave similar qualitative results. Results from one experiment are shown;
Plasma and purified LDL and HDL were adjusted to 1.67 mg phospholipid (PL)/mL final concentration in PBS. Because purification yielded low amount of CM/VLDL, the CM/VLDL fraction was adjusted to 1.00 mg PL/mL. CaCl2 (1 mM final) was added to the lipoprotein fractions. 200 μL of each fraction were deposited in a 96-well plate and incubated for 15 hours at 37° C., alone or in the presence of recombinant human GX sPLA2 (hGX PLA2, 25.0 nM), recombinant human GIIF sPLA2 (hGIIF PLA2, 125.0 nM), bee venom sPLA2 (bvPLA2, 0.18 nM) and Naja mossambica mossambica venom sPLA2 (Naja PLA2, 0.05 nM). NEFAs were measured in triplicate using the NEFA-C kit (WAKO). Value from each fraction was normalized by subtracting the NEFA amount in the corresponding fraction without enzyme. Two independent experiments with lipoproteins from different plasmas were performed, which gave similar qualitative results. According to the experiment, maximum hydrolysis reached 50% or 65% of total PLs in the fraction. […]

Experiment [2] relates to P. falciparum blood stages. Nature of the experiment: Sensitivity of the P. falciparum blood stages to GX sPLA2 (15 h treatment, re-invasion). In kind it is cell-based. Conditions: 100 nM. The method, then: A parasite culture was synchronised on a 4 h window. Parasites aged 0-4 h post-invasion (p.i.) (rings, R), 18-22 h p.i. (trophozoites, T), and 34-38 h p.i. (schizonts, S) were incubated for 15 h in culture conditions with (▪) or without (□) 100 nM recombinant GX sPLA2. Afterwards cells were washed and let grow in normal culture conditions until re-invasion. GX sPLA2 inhibitory activity on the complete parasite cycle was assessed by incubating 0-4 h p.i. parasites for 48 h with GX sPLA2 (cycle). Parasitaemia in each sample was determined from Diff Quick-stained smears. For each stage, 100% parasitaemia was established from parasite growth in the absence of enzyme;
A parasite culture was synchronised on a 4 h-window. Parasites aged 0-4 h post-invasion (rings), 18-22 h post-invasion (trophozoites), and 34-38 h post-invasion (schizonts) were adjusted to 1% parasitaemia and 2% haematocrit in complete medium, and were then incubated in a 96-well plate in a candle jar at 37° C., with or without 100 nM of recombinant GX sPLA2. After 15 hours, cells were centrifuged at 900×g for 2 min, washed in RPMI and re-suspended at a 2% haematocrit in fresh complete medium for further growth. When re-invasion had occurred (P. falciparum invades new RBCs when its 48 hour-development cycle is completed), parasitaemia (%) in each well was determined from Diff Quick-stained smears. GX sPLA2 inhibitory activity on the complete parasite cycle was assessed by incubating rings with the recombinant enzyme for 48 hours.

From patent US8709741B2, “Methods of diagnosing a plasmodium infection” (priority 2009, dated 2014) come the findings set out here.

B1: X: recombinant human group X secreted phospholipase A2 (protein, UniProt O15496 43-165, looked up)
Group 10 secretory …: GILELAGTVGCVGPRTPIAYMKYGCFCGLGGHGQPRDAIDWCCHGHDCCYTRAEEAGCSPKTERYSWQCVNQSVLCGPAENKCQELLCKCDQEIANCLAQTEYNLKYLFYPQFLCEPDSPKCD
For the molecule B1, the “preferential order of lipoprotein hydrolysis” value in experiment [1] was “HDL>LDL>CM/VLDL”. Also, in experiment [2] (rings 0-4 h post-invasion), the “re-invasion after treatment of rings” value came out at 25%. Moreover, the “schizonts that completed the cycle after treatment” value in experiment [2] (schizonts 34-38 h post-invasion) is “less than 10%”. Also, the “trophozoites that completed the cycle after treatment” value in experiment [2] (trophozoites 18-22 h post-invasion) is on record as “less than 10%”.
